Measured values as given in the supplement of paper PMC9170038.

Test system: MS2 coat protein
Experiment: apparent KD of MS2 coat protein; designed switch direction (-1 OFF switch, 1 ON switch): -1; higher = weaker reporter binding
Outline: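 The buffer was Tris-HCl pH 7.5 with KCl, MgCl2, BSA, DTT, tRNA and Tween-20. In it, SNAP-549-labelled MS2 coat protein was titrated in doubling steps from 0.7 or 1.5 nM to 3 µM over chip-bound RNA switches transcribed by stalled E. coli RNA polymerase on Illumina chips. Apparent KD is the per-design median over clusters of curve fits to normalised fluorescence.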

[1] = input ligand: microRNA oligo, concentration not stated
[2] = Eterna round: R95, input ligand: FMN 200 uM
[3] = Eterna round: R95, input ligand: microRNA oligo, concentration not stated
[4] = Eterna round: R95, input ligand: none

Sequence	apparent KD of MS2 coat protein (input ligand: FMN 200 uM) [µM]	apparent KD of MS2 coat protein [1] [µM]	apparent KD of MS2 coat protein (input ligand: none) [µM]	apparent KD of MS2 coat protein [2] [µM]	apparent KD of MS2 coat protein [3] [µM]	apparent KD of MS2 coat protein [4] [µM]
ACAUGUCAUUGAGGAUAUUGCACACAUGAGGAUCACCCAUGUAUACGGAUGCUCUUACGUGAGUUCGAGAAGGCGAUGUACAUU [Ex NG2 #89] (Eterna round: R96, puzzle: Exclusion NG 2)	0.29	0.121	0.16	–	–	–
ACAUGUUGCGCAGGAUAUGGGACACAUGAGGAUCACCCAUGUGGUUACAUGUCUUACCAAGCGUCCCAGAAGGGCGUGAACAUG [Ex NG2 #31] (Eterna round: R96, puzzle: Exclusion NG 2)	0.0286	0.0184	0.0221	–	–	–
ACAUUUGUAGAGGAUAUCAAGCCCAGGCUCCGUUGAGAAGGUUACACAUGAGGAUCACCCAUGUCCUCCUUACC [Eternabot (L1) Solution 4] (Eterna round: R97, puzzle: Exclusion 6)	0.168	–	0.162	–	–	–
ACCAUGUCAGGAUAUGCCCGUGUUCGAUCCGAGAAACACGAGCAGAAGGGACAUGAGGAUCACCCAUGUCCAAG [Eternabot (Original) Solution 1] (Eterna round: R97, puzzle: Exclusion 4)	0.0452	–	0.0162	–	–	–
ACCCAACAUGAGGAUCACCCAUGUCAGGAUAUCCAUCACUAUCACGAAAGGAUAGGAUGGAGAAGGGACAGAGG [ChP 04-04-2015 #3] (puzzle: Exclusion 1)	–	–	–	0.325	0.0998	0.158
ACCUCACAUGAGGAUCACCCAUGUCAGGAUAUGUACCCGAUCAAGUCAGAGAUCGGAAGCAGAAGGGACUGCGG [Bemabebe] (puzzle: Exclusion 1)	–	–	–	0.0265	0.0993	0.0865
ACCUCACAUGAGGAUCACCCAUGUCAGGAUAUUCAAACAGGCGAAACUCCGCCUUCUCGAAGAAGGGACAUUAA [Israon] (Eterna round: R96, puzzle: Exclusion 1)	0.0821	0.0146	0.0177	–	–	–
ACCUCACAUGAGGAUCACCCAUGUCAGGAUAUUCAAACAGGCGAAACUCCGCCUUCUCGAAGAAGGGACAUUAA [Israon] (puzzle: Exclusion 1)	–	–	–	–	0.0162	–
ACCUCACUUGAGGAUCACCCAAGUCAGGAUAUACUCGUUUGCCACAAAACGCGGCAUUGUAGAAGGGACGGGCU [Esusso] (Eterna round: R97, puzzle: Exclusion 1)	0.03	–	0.0215	–	–	–
ACCUCACUUGAGGAUCACCCAAGUCAGGAUAUACUCGUUUGCCGCACGACGCGGCAUUGUAGAAGGGACGGGCU [Soraedrale] (Eterna round: R97, puzzle: Exclusion 1)	0.0341	–	0.0181	–	–	–
ACCUUAAAAGUGAGGAUAUCUAGGGCCAAAUGGCCGGAGAAGGCACAUGAGGAUCACCCAUGUAACGCCAUGGA [Beinat] (puzzle: Brourd's mod of Exclusion 4)	–	–	–	–	0.0139	–
ACCUUACAUGAGGAUCACCCAUGUCAGGAUAUCUCGGACGGCUGAAAACCAACCGUCCAGAGAAGGGACGAGGA [Solamaso] (puzzle: Exclusion 1)	–	–	–	–	0.0125	–
ACCUUACAUGAGGAUCACCCAUGUCAGGAUAUCUCGGGCGGCUGGAGACCAGCCGCCCAGAGAAGGGACGAGGA [Engeisbe] (puzzle: Exclusion 1)	–	–	–	–	0.0122	–
ACGAUUGUAGGAUAUACUUGGAGAGUGUUCACAUAUUAACGACAUGAGGAUCACCCAUGUAGAAGGGCAAUCGG [Eternabot (L1) Solution 22] (Eterna round: R97, puzzle: Exclusion 2)	0.174	–	0.421	–	–	–
ACGCAUUGCCAAAGGUAGUGCGUAACAUGAGGAUCACCCAUGUAGGAUAUGGUAGGCUUUGCUUACCAGAAGGACAUAAUAAUU [Mat - Exclusion NG 3 - Mod of JL - D4] (Eterna round: R96, puzzle: Exclusion NG 3)	0.0436	0.0227	0.0278	–	–	–
ACGUAACGAGCUUGGUCCAACAUGAGGAUCACCCAUGUGCUCGUCUUAUAACGUACUGUCACGUUAGUGAUAGUGCG [Sensor v3, turn-off variant 1 (MOD of Eli's v1-13 v.6)] (puzzle: Sensor v3, turn-off variant 1)	–	–	–	0.286	0.194	0.36
ACGUAUAGAGGAUAUACAGAAUAUUACAUGAGGAUCACCCAUGUUCUUCAAUGUAUAUUUGUAGAAGGCUAAUGAA [EX-5 Malc#8] (puzzle: Exclusion 5)	–	–	–	–	0.0623	–

Sequence	apparent KD of MS2 coat protein (input ligand: FMN 200 uM) [µM]	apparent KD of MS2 coat protein [1] [µM]	apparent KD of MS2 coat protein (input ligand: none) [µM]	apparent KD of MS2 coat protein [2] [µM]	apparent KD of MS2 coat protein [3] [µM]	apparent KD of MS2 coat protein [4] [µM]
ACGUGGGCCCUUAGUGAACAUGAGGAUCACCCAUGUAACCACAAGGAUAUCUACGCCAGCACGCGAGAGAAGGUGUGAAAUAAU [Maorbetiza] (Eterna round: R96, puzzle: Exclusion NG 3)	0.132	0.0354	0.0448	–	–	–
ACUCAGUGAGGAUAUCGCCAGAGAGCCGCAACAGCUCCUGAUGAGAAGGCACAUGAGGAUCACCCAUGUAAGCA [EX4 C.19] (Eterna round: R97, puzzle: Exclusion 4)	0.321	–	0.116	–	–	–
ACUCUAUAGUAGGAUAUCAUCAAACUAUUGUGAUGAGAAGGACUAACAUGAGGAUCACCCAUGUUAACGUGAAG [Mod of Brourd 5 - Jieux - Exclusion 6] (Eterna round: R97, puzzle: Exclusion 6)	0.0243	–	0.0211	–	–	–
ACUGCCACAGGAUAUACGAAACUCUUGGGUUCCGCCGUGUGACAUGAGGAUCACCCAUGUAGAAGGGUGGCUUA [Atbiinza] (puzzle: Exclusion 2)	–	–	–	–	0.398	–
ACUGUUUGAUACCUCUUAUACAUGAGGAUCACCCAUGUUAUCGAGGAUAUGCAUUAGAGUGGUUAGCAGAAGGCGAUGUAAUUG [JR_ExcNG3_Sub032] (Eterna round: R96, puzzle: Exclusion NG 3)	0.0308	0.0121	0.0135	–	–	–
ACUUACUGAGGAUAUACUUAGAUUUACAUGAGGAUCACCCAUGUUCCUCUAUGUAUAUAUGUAGAAGGCAGAAGUU [Mat - Exclusion 5 - JL Mod - D49] (Eterna round: R97, puzzle: Exclusion 5)	0.216	–	0.0381	–	–	–
ACUUAUAGAGGAUAUACAGUUAAUUACAUGAGGAUCACCCAUGUUCUUCAAUGUAUAUAAGUAGAAGGCAAAGGAA [Mat - Exclusion 5 - Eli Mod - D3] (Eterna round: R97, puzzle: Exclusion 5)	0.0232	–	0.0162	–	–	–
ACUUAUUGAGGAUAUACAGAAAAUUACAUGAGGAUCACCCAUGUUCUUCAAUGUAUAUAUGUAGAAGGCAGAAUAU [Mat - Exclusion 5 - JL Mod - D19] (Eterna round: R97, puzzle: Exclusion 5)	0.0311	–	0.0165	–	–	–
AGAAAGGAAGGAUAUACAAGAAAGCUGGGCAACGUCUCAUAACAUGAGGAUCACCCAUGUAGAAGGUCCAGGAA [Tiusredi] (puzzle: Exclusion 2)	–	–	–	0.0357	0.0212	0.0193
AGAAAUGCCCAUGGCCGCAAGCUCUUUGCUUGUCUUACCACAUGAGGAUCACCCAUGUGACAUGGGCUCCUUAUAAU [Riquarge] (puzzle: Sensor v3, turn-off variant 2)	–	–	–	0.0139	0.00977	0.012
AGAACUCUAGUAGGAUAUGUCGGAUAUGUUGUUGAGGUUCACCCAACGACGUCAAUGACAGAGGGACAGAAGGACUCCUGUUCC [pwkr exNG2 2xFMN 1xF5.9] (Eterna round: R96, puzzle: Exclusion NG 2)	0.873	0.506	1.11	–	–	–
AGAAGUAGUAACCGAUCCUACAUGAGGAUCACCCAUGUAGCUAGACGUGCACGCGAUGCUCGUCAGACUACCAGAUG [salish99_TOv1_r3_027] (puzzle: Sensor v3, turn-off variant 1)	–	–	–	0.171	0.136	0.171
AGACAGUCAGGAUAUACAUGAGGAUCACCCAUGUUGAGAUGAGAAAGGGCAGGAAGAGGUAGAAGGGACAAGAG [JR_Exclu3_Sub036] (puzzle: Exclusion 3)	–	–	–	0.025	0.0208	0.0248
AGAGAAUAGUCAGGAUAUGAGAAUAGAUAGAGCUCAGAAGGGACACAUGAGGAUCACCCAUGUGAAGUCUUGAGGCUGCGUGGA [Prohibition 20 - Jieux - Exclusion NG 1] (Eterna round: R96, puzzle: Exclusion NG 1)	–	0.0113	–	–	–	–
AGAGAGUCAGGAUAUCGAAGGUAGAGAAGAGGAGAGUGGUACGAGAAGGGACAUGAGGAUCACCCAUGUAGGUG [JR_Exclusion4)Sub012] (puzzle: Exclusion 4)	–	–	–	0.193	0.245	0.462
AGAGUGCUGCGAGGAUAUACAUGAGGAUCACCCAUGUAAAAGUGUGAGGCAAAGCCUCACACGAAGUAGAAGGCGCAGUACUCA [Mat - Exclusion NG 2 - Mod of JL - D34] (Eterna round: R96, puzzle: Exclusion NG 2)	0.0128	0.00985	0.0252	–	–	–
AGAGUGCUGCGAGGAUAUACAUGAGGAUCACCCAUGUAAAAGUGUGAGGCUUUGCCUCACACGAAGUAGAAGGCGCAGUACUCA [Mat - Exclusion NG 2 - Mod of JL - D33] (Eterna round: R96, puzzle: Exclusion NG 2)	0.013	0.0113	0.0243	–	–	–
